Experimental data reported in PMC7810697, “Sarcolipin alters SERCA1a interdomain communication by impairing binding of both calcium and ATP” (Scientific Reports, 2021).
Ends that are not written are not given here. * marks the point of attachment. Palmitoyl = CCCCCCCCCCCCCCCC(=O)*

Legend:
[1] = biological target: T1, DDM-solubilized SR (native SERCA1a) (Oryctolagus cuniculus, UniProt P04191); test: Effect of SLN:SERCA1a stoichiometry on phosphorylated intermediate, DDM-solubilized SR; type: biochemical, rabbit; settings: for EPmax (stoichiometry series), DDM-solubilized SR / decrease of the EP level, DDM-solubilized native SERCA1a (discussion): Fig. 4G; for amplitude of the inhibition of phosphoenzyme level, DDM-solubilized SR: SR without added SLN = 100%; for amplitude of the inhibition of phosphoenzyme level, DDM-solubilized SR / SLN:SERCA1a ratio for half-inhibition, DDM-solubilized SR (Fig. 4H): mean of three independent experiments; for SLN:SERCA1a ratio for half-inhibition, DDM-solubilized SR (Fig. 4H): phosphoenzyme after 20 s, p = 0.047 pSLN vs SLN
T1 construct: DDM-solubilized native SERCA1a purification; from tissue; host or cells: rabbit skeletal muscle sarcoplasmic reticulum
Procedure: Transient formation of the phosphoenzyme intermediate was measured after incubation with [γ^32P]ATP followed by acid quenching, and filtration. For most experiments, 50 µL of enzyme at 10 µg/mL in a buffer containing 50 mM Tes-Tris pH7.5, 1 mM KCl, 5 mM MgCl2, 20% glycerol (w/w) and 0.5 mg/mL DDM, supplemented or not with SLN, was stored on ice. Concentrations of EGTA and calcium are specified in figure legends in order to reach the appropriate [Ca^2+]free and therefore the desired starting state for the ATPase. For kinetics of phosphorylation, we initiate reaction by addition of 2 µM [γ^32P]ATP (5 mCi/µmole), and calcium at 100 µM when specified. Reaction was quenched by addition of 2 mL of cold quenching medium (500 mM TCA + 30 mM H3P0_4) under vigorous mixing, and immediately stored on ice for 20–30 min to improve precipitation, a period of time critical for retention of the precipitate on the filter in presence of detergent. This was followed by filtration on GS filters (Millipore, Saint Quentin-Fallavier, France) and careful rinsing of the filters with diluted quenching medium (50 mM TCA + 3 mM H3P0_4). The amount of radioactivity bound to the filter was estimated by liquid scintillation counting (Perkin Elmer TriCarb Counter). When starting from a calcium-deprived state (Fig. 4C,D), EGTA was added only one minute before starting phosphorylation to limit irreversible inactivation of the solubilized ATPase, although the presence of glycerol helps in protecting the enzyme from irreversible inactivation. For dephosphorylation kinetics, 1 mM “cold” Mg.ATP was added after a 30 s period of phosphorylation. For Ca^2+-dependency, we adjust the concentration of free calcium according to the Ca.EGTA constant as mentioned above, before triggering phosphorylation. […] Phosphorylations were done at 0 °C especially for inhibition by vanadate to prevent dissociation of vanadate and limit irreversible inactivation in absence of calcium. […]
resuspended in a large volume of pure water and lyophilized to evaporate most of the TFA. The rinsed powder was then suspended in presence of 10 mM HCl to exchange the anionic residual TFA that may interact with the positive charges of the peptide for chloride. This suspension was lyophilized again.
Three additional cycles of – dissolving in pure water / lyophilisation – will allow to eliminate traces of TFA and to get back to a pH compatible with functional tests. For final solubilisation of SLN in detergent, powder was then dissolved in 50% TFE and an amount of detergent to reach a 100:1 mole:mole detergent:SLN ratio. Here, we used C12E8 as it is fully compatible with functional characterization of SERCA1a 23. This suspension was then lyophilized again to evaporate TFE.
Sarcolipins (Palm-SLN or SLN) were finally resuspended at 0.8 mg/mL (about 200 µM) in a 10 mM potassium phosphate buffer pH 7.4, in the presence of 2.5 mg/mL C12E8. […]
DDM-solubilized native SERCA1a purification
SR vesicles were suspended at a concentration of 1 mg/mL in a buffer containing 50 mM MOPS-Tris pH7, 100 mM KCl, 5 mM MgCl2, 0.1 mM CaCl2, 20 % glycerol (v/v) and 10 mg/mL DDM (detergent:protein ratio 10:1 w/w), and incubated for 10 minutes at 20°C. Solubilized material was recovered after centrifugation for 10 minutes at 120,000 x g on a TLA100.3 rotor (Beckman Coulter TL100 ultracentrifuge). Supernatant was injected on a size exclusion chromatography column (Superdex 200 10/300 GL on an Akta Purifier FPLC system, GE Healthcare) equilibrated with the same buffer but now containing only 0.5 mg/mL DDM. Chromatography was performed at 4°C and at a flow rate of 0.5 mL/min. Fractions corresponding to the main peak were collected, pooled and stored at - 80°C. For further details, see 32.
Steady-state ATPase activity measurements
Measurements were performed using classical enzyme coupled assay. We measured the rate of NADH oxidation in the presence of 0.1 mg/mL lactate deshydrogenase, 0.05 mg/mL pyruvate kinase, 1 mM […]

[2] = biological target: T2, recombinant SERCA1a (recS1a) (Oryctolagus cuniculus, UniProt P04191); test: Effect of SLN:SERCA1a stoichiometry on phosphorylated intermediate, recS1a; type: biochemical, rabbit (expressed in S. cerevisiae); settings: for EPmax (stoichiometry series), recS1a / maximum decrease of the EP level, recS1a (discussion): Fig. 4G; for SLN:SERCA1a ratio for half-inhibition, recS1a (Fig. 4H): phosphoenzyme after 20 s, dose-response with variable slope; for SLN:SERCA1a ratio for half-inhibition, recS1a (Fig. 4H) / amplitude of the inhibition of phosphoenzyme level, recS1a: mean of three independent experiments; for amplitude of the inhibition of phosphoenzyme level, recS1a: recS1a without SLN = 100%
T2 construct: BAD (biotin acceptor domain) (C, cleaved yes); made in house; host or cells: Saccharomyces cerevisiae
Procedure: (§1) Transient formation of the phosphoenzyme intermediate was measured after incubation with [γ^32P]ATP followed by acid quenching, and filtration. For most experiments, 50 µL of enzyme at 10 µg/mL in a buffer containing 50 mM Tes-Tris pH7.5, 1 mM KCl, 5 mM MgCl2, 20% glycerol (w/w) and 0.5 mg/mL DDM, supplemented or not with SLN, was stored on ice. Concentrations of EGTA and calcium are specified in figure legends in order to reach the appropriate [Ca^2+]free and therefore the desired starting state for the ATPase. For kinetics of phosphorylation, we initiate reaction by addition of 2 µM [γ^32P]ATP (5 mCi/µmole), and calcium at 100 µM when specified. Reaction was quenched by addition of 2 mL of cold quenching medium (500 mM TCA + 30 mM H3P0_4) under vigorous mixing, and immediately stored on ice for 20–30 min to improve precipitation, a period of time critical for retention of the precipitate on the filter in presence of detergent. This was followed by filtration on GS filters (Millipore, Saint Quentin-Fallavier, France) and careful rinsing of the filters with diluted quenching medium (50 mM TCA + 3 mM H3P0_4). The amount of radioactivity bound to the filter was estimated by liquid scintillation counting (Perkin Elmer TriCarb Counter). When starting from a calcium-deprived state (Fig. 4C,D), EGTA was added only one minute before starting phosphorylation to limit irreversible inactivation of the solubilized ATPase, although the presence of glycerol helps in protecting the enzyme from irreversible inactivation. For dephosphorylation kinetics, 1 mM “cold” Mg.ATP was added after a 30 s period of phosphorylation. For Ca^2+-dependency, we adjust the concentration of free calcium according to the Ca.EGTA constant as mentioned above, before triggering phosphorylation. […] Phosphorylations were done at 0 °C especially for inhibition by vanadate to prevent dissociation of vanadate and limit irreversible inactivation in absence of calcium.

[3] = biological target: T2, recombinant SERCA1a (recS1a); test: Kinetics of phosphorylation from [γ32P]ATP, recS1a; type: biochemical, rabbit (expressed in S. cerevisiae); settings: for EPmax, from calcium deprived state: Fig. 4C, mean of six (pSLN), four (SLN) replicates, recS1a alone 3.09 ± 0.10; for t1/2 of phosphorylation, from calcium deprived state: EGTA 1 min then 2 µM [γ32P]ATP and calcium, six (pSLN) or four (SLN) replicates from two independent experiments, recS1a alone 6.8, p < 0.0001; for rate of phosphorylation, from calcium deprived state: recS1a, starting from calcium-deprived state, Fig. 4C,D
Procedure: as §1

T1 sequence (P04191 1-994 isoform P04191-2): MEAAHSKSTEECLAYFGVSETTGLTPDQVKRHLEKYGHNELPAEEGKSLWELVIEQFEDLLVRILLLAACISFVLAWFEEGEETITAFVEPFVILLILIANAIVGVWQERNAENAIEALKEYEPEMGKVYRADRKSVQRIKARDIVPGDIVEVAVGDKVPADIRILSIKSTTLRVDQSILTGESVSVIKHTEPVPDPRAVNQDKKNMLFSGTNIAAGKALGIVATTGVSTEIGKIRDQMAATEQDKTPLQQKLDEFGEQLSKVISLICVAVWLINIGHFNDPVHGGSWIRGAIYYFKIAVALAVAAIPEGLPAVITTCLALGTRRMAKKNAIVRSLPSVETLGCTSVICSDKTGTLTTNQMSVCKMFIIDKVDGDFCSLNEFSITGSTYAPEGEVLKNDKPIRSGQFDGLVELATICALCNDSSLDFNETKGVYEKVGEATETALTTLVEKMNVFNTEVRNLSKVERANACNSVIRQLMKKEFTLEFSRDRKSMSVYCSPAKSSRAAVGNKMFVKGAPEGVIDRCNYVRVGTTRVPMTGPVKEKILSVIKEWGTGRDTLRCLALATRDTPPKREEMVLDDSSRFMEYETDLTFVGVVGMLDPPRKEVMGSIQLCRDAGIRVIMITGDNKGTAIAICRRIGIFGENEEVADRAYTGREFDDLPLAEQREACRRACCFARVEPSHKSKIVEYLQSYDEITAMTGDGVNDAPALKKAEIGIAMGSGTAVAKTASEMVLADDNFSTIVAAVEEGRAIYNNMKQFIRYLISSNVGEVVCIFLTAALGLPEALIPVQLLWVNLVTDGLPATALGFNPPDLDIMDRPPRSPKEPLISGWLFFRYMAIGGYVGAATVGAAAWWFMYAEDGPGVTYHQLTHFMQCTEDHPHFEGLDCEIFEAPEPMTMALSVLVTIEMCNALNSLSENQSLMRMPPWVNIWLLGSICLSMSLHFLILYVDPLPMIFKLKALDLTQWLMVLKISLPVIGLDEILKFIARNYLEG
T2 sequence (P04191 1-994 isoform P04191-2): as above

| EPmax (stoichiometry series), DDM-solubilized SR [1] [nmoles EP/mg ATPase] | decrease of the EP level, DDM-solubilized native SERCA1a (discussion) [1] | amplitude of the inhibition of phosphoenzyme level, DDM-solubilized SR [1] [%] | EPmax (stoichiometry series), recS1a [2] [nmoles EP/mg ATPase] | maximum decrease of the EP level, recS1a (discussion) [2] | amplitude of the inhibition of phosphoenzyme level, recS1a [2] [%] | EPmax, from calcium deprived state ([3]; SLN:SERCA1a 10:1) [nmoles EP/mg ATPase] | t1/2 of phosphorylation, from calcium deprived state ([3]; SLN:SERCA1a 10:1 mol:mol) [s] | rate of phosphorylation, from calcium deprived state [3] | EPmax, from calcium bound state ([3]; SLN:SERCA1a 10:1, Fig. 4A, average of four replicates from two independent experiments, recS1a alone 3.37 ± 0.35) [nmoles EP/mg ATPase] | t1/2 of phosphorylation, from calcium bound state (Ca2.E1) ([3]; SLN:SERCA1a 10:1 mol:mol, 2 µM [γ32P]ATP, four replicates from two independent experiments, recS1a alone 5.7, p = 0.45) [s] | rate of phosphorylation, from calcium bound state ([3]; recS1a in absence or presence of pSLN, starting from Ca2.E1) | Substance | SLN:SERCA1a ratio for half-inhibition, DDM-solubilized SR (Fig. 4H) [1] | SLN:SERCA1a ratio for half-inhibition, recS1a (Fig. 4H) [2] |
| --- | --- | --- | --- | --- | --- | --- | --- | --- | --- | --- | --- | --- | --- | --- |
| 3.94 ± 0.12 | about 20% | 19.0 ± 0.7 | 2.38 ± 0.05 | about 30% | 28.6 ± 0.5 | 3.15 ± 0.05 | 13.7 | significantly lower | – | – | – | SLN: chemically synthesized non-palmitoylated rabbit sarcolipin; in cited literature results sarcolipin in general (MERSTRELCLNFTVVLITVILIWLLVRSYQY; UniProt P42532 1-31, looked up) | 3.1 ± 0.3 mol SLN added per mole of SERCA1a | 4.7 ± 0.2 mol SLN added per mole of SERCA1a |
| 4.00 ± 0.14 | about 30% | 28.1 ± 1.2 | 2.37 ± 0.05 | about 30% | 31.2 ± 0.8 | 3.10 ± 0.09 | 13.5 | significantly lower | 3.23 ± 0.37 | 5.1 | the same | pSLN: chemically synthesized S-palmitoylated rabbit sarcolipin, 31-residue single-spanning membrane peptide, palmitoylated on Cys9 (MERSTRELC(Palmitoyl)LNFTVVLITVILIWLLVRSYQY; UniProt P42532 1-31, looked up) | 5.9 ± 0.6 mol SLN added per mole of SERCA1a | 5.1 ± 0.3 mol SLN added per mole of SERCA1a |
